Data from publication PMC10375638.
Where two headings read alike, the source gives them in different places.

Tests used:
[1] = biological target: AP1-mV reporter in Arabidopsis flowers (Arabidopsis thaliana) (UniProt P35631); test: FRET or BRET; FLIM-FRET (OPA) in young flowers of stable A. thaliana lines; donor AP1-mV, acceptor AP1-mCh or PI-mCh, endogenous promoters, F1 plants; only nuclei with donor and acceptor
[2] = biological target: … (PI) fused to mVenus, expressed in N. benthamiana (Arabidopsis thaliana) (UniProt P48007); test: FRET or BRET; FLIM-FRET with one pattern analysis (OPA) in nuclei of transiently expressing N. benthamiana leaf epidermis cells; donor mVenus fusion, acceptor mCherry fusion; BINDING = relative amplitude of the FRET fraction; nucleoli excluded; FRET efficiency only for nuclei with BINDING above 10%
[3] = biological target: APETALA3 (AP3) fused to mVenus, expressed in N. benthamiana (Arabidopsis thaliana) (UniProt P35632); test: as above
[4] = biological target: APETALA1 (AP1) fused to mVenus, expressed in N. benthamiana (Arabidopsis thaliana) (UniProt P35631); test: as above
[5] = biological target: APETALA1 (AP1) fused to mVenus, expressed in N. benthamiana (Arabidopsis thaliana) (UniProt P35631); test: as above; remark: listed apart in the source
[6] = biological target: APETALA1 (AP1) fused to mVenus, expressed in N. benthamiana (Arabidopsis thaliana) (UniProt P35631); test: as above; remark: listed apart in the source

APETALA1 (AP1) fused to mVenus, expressed in N. benthamiana, P35631 1-256 (natural protein; other documents disagree on this pair), sequence (P35631 whole entry, the tested form may be a part): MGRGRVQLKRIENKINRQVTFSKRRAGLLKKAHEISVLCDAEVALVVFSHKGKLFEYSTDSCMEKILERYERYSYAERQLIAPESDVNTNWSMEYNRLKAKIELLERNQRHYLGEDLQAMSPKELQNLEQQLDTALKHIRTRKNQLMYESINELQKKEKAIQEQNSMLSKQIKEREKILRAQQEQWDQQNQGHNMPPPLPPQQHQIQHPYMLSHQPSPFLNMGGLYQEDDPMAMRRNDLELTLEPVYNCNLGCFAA
… (PI) fused to mVenus, expressed in N. benthamiana (Arabidopsis thaliana), sequence (P48007 whole entry, the tested form may be a part): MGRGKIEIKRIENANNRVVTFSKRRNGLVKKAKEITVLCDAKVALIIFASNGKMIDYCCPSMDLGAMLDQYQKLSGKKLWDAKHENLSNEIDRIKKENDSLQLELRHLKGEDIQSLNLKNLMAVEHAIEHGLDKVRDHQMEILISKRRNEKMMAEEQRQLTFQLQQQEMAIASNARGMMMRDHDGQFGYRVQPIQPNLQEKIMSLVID
APETALA3 (AP3) fused to mVenus, expressed in N. benthamiana (Arabidopsis thaliana), sequence (P35632 whole entry, the tested form may be a part): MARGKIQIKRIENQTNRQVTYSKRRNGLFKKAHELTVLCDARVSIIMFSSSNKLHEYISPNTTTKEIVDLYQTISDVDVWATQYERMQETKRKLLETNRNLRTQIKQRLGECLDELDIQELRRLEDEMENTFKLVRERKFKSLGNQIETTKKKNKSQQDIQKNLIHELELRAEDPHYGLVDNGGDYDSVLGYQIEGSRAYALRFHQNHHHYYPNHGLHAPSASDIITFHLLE
AP1-mV reporter in Arabidopsis flowers, P35631 1-256 (natural protein; other documents disagree on this pair), sequence (P35631 whole entry): as the sequence (P35631 whole entry, the tested form may be a part) above
APETALA1 (AP1) fused to mVenus, expressed in N. benthamiana (Arabidopsis thaliana), sequence (P35631 whole entry, the tested form may be a part): as above

Substance	BINDING [2]	FRET efficiency [2]	BINDING [3]	FRET efficiency [3]	BINDING [5]	FRET efficiency [5]	other results
AP1-mV reporter in Arabidopsis flowers, P35631 1-256 (natural protein; other documents disagree on this pair)	–	–	–	–	–	–	BINDING [1]: 8.59%; FRET efficiency [1]: 56.7%
APETALA1 (AP1) fused to mCherry, expressed in N. benthamiana (from UniProt P35631 1-256) (natural protein)	16.1%	41.5%	16.5%	43.6%	–	–	–
APETALA1 (AP1) fused to mVenus, expressed in N. benthamiana, P35631 1-256 (natural protein; other documents disagree on this pair)	–	–	–	–	29.9%	39%	FRET efficiency [4]: 40%; BINDING [6]: 19.2%
APETALA3 (AP3) fused to mCherry, expressed in N. benthamiana (from UniProt P35632 1-232) (natural protein)	36%	38%	–	–	–	–	–
…3 (SEP3) fused to mCherry, expressed in N. benthamiana (from UniProt O22456 1-251) (natural protein)	–	–	–	–	36.1%	42.6%	–
… (PI) fused to mCherry, expressed in N. benthamiana (from UniProt P48007 1-208) (natural protein)	–	–	35.2%	38%	–	–	–
